# Data reported in patent US11840557B2, “Wnt7 variants capable of activating g-protein coupled receptor (Gpr)124/Reck/frizzled/lipoprotein receptor-related protein (LRP)-mediated Wnt signaling” (UNIVERSITÉ LIBRE DE BRUXELLES, priority 2018, dated 2023).
# T1: HA-Reck (Homo sapiens, UniProt O95980)
# T1 construct: expressed in transfected cells; host or cells: GPR124-/-;RECK-/- HEK293 (STF) cells, pCS2 / CMV promoter
# T1 sequence (O95980 23-942): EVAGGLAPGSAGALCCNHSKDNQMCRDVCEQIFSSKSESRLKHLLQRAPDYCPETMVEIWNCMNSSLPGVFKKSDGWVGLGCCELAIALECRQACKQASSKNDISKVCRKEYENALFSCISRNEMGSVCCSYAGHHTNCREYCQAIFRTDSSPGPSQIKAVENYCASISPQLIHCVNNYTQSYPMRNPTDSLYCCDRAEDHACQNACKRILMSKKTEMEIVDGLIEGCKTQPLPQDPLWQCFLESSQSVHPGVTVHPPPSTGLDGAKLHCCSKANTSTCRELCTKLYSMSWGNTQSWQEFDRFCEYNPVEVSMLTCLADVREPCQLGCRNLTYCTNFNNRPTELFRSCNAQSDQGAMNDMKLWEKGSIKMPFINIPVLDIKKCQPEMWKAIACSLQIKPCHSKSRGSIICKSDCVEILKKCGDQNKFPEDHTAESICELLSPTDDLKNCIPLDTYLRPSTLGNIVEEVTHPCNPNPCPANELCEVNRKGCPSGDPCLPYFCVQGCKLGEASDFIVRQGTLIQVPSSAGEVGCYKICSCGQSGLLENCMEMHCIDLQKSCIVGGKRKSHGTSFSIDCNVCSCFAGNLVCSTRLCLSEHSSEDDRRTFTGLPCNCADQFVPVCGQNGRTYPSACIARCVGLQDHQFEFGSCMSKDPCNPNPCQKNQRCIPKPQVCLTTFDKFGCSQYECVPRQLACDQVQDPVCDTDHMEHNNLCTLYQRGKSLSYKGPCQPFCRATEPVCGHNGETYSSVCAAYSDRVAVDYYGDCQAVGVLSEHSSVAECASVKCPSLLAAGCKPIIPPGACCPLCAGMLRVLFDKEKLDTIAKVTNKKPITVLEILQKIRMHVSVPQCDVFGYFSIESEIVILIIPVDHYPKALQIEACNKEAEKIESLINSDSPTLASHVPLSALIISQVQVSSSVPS
# Legend:
# HA-Reck = molecular target: T1, HA-Reck; experiment: Proximity ligation assay (PLA), anti-V5/anti-HA, V5-tagged Wnt ligand and HA-Reck in GPR124−/−;RECK−/− cells; assay type: cell-based; settings: GPR124−/−;RECK−/− cells co-expressing HA-Reck
# Method: 1.7. Immunofluorescence and Proximity Ligation Assay Cells were grown in glass-coated chambers (IBIDI, Martinsried, Germany) and transfected after 24 h with Lipofectamine 2000 (Life Technologies, Carlsbad, Calif.). Cells were fixed with 4% paraformaldehyde for 10 min at room temperature (RT) 48 h post transfection. For immunofluorescence staining (IF), cells were blocked in 1% BSA-PBS for 30 min before being exposed to primary antibodies for 1 h at RT. After three PBS washes, cells were incubated with secondary antibodies for 1 h at RT. For anti-V5 staining of Wnt ligands, cells were additionally washes for 10 min in PBS 0.1% Tween 20 before incubation with the secondary antibody solution. For the proximity ligation assay (PLA) (Sigma-Aldrich, St. Louis, Mo.), cells were blocked for 30 min at 37° C. with the Blocking solution provided by the manufacturer before being incubated with the primary antibodies for 1 h at RT. Cells were washed three times and incubated with the PLA probes anti-rabbit PLUS and anti-mouse MINUS for 1 h at 37° C. After two PBS washes, cells were incubated with the Duolink Ligation solution for 30 min at 37° C. After two PBS washes, cells were incubated with the Duolink Amplification solution for 100 min at 37° C. The following antibodies were used: mouse monoclonal anti-V5 (R96025, Life Technologies, Carlsbad, Calif.) at 1:500 for IF and PLA, purified polyclonal rabbit anti-HA (H6908, St. Louis, Mo.) at 1:400 for IF and PLA and anti-mouse Alexa488-conjugated secondary antibody (Thermo Fisher Scientific, Waltham, Mass.) at 1:5000. Cells were stained for 2 min with Hoechst diluted to 10 μg ml-1 in PBS.
# Cells and zebrafish embryos were imaged with an LSM710 confocal microscope and images were processed in ImageJ. Images of eye fusion phenotypes were taken on Leica M165 FC. Representations of brain vasculature were generated using Imaris software (BitPlane, Zurich, Switzerland). The percentage of PLA positive (PLA+) areas and DAPI positive (DAPI+) areas were calculated using ImageJ on images containing about 50 to 100 cells. The PLA+ area was measured after manually applying a fixed threshold. The DAPI+ area was measured after applying the “default” thresholding method in Image J.
# wnt7aa morphants = experiment: Trunk DRG rescue in wnt7aa morphant zebrafish larvae; assay type: in vivo, Danio rerio; settings: 100 pg mRNA injection, 72 hpf
# Method: Zebrafish (Danio rerio) were raised and handled under standard conditions following the rules of the State of Belgium (protocol approval number: CEBEA-IBMM-2017-22:65). The following line was used: Tg(−17.0neurog1:EGFP)^w61 (McGraw et al., J. Neurosci 28(47):12558-69 (2008)).
# The following splice-blocking morpholino (MOs) (GeneTools, Eugene, OR) were injected into embryos at the one-cell stage: wnt7aa ([…], 6 ng) (SEQ ID NO.: 123). Synthetic mRNAs were transcribed from pCS2 plasmids after NotI digestion using the mMessage mMachine SP6 Kit (Ambion, Carlsbad, CA) and injected into one-cell stage zebrafish embryo. For Xenopus laevis microinjection, 15 pg of wnt7a or wnt7a^K190A or wnt7a^1-278 mRNA were injected into one ventral blastomere of the four-cell stage embryo.
# zebrafish embryos were imaged with an LSM710 confocal microscope and images were processed in ImageJ. Images of zebrafish development phenotypes were taken on Leica M165 FC. Xenopus larvae were imaged with an Olympus SZX16.
# [1] = system: Wnt7aa^−/− mutant zebrafish; experiment: Transgenic endothelial expression (kdrl promoter) in Wnt7aa−/− zebrafish: hindbrain CtAs and GLUT1 staining; assay type: in vivo, Danio rerio; settings: 60 hpf embryos
# Description: (A) Dorsal views of the cerebral vasculatures of 60 hpf WT or Wnt7aa^−/− Tg(kdrl:EGFP) embryos. In Wnt7a^−/− mutants, the intracerebral CtAs are lacking. Wnt7, Wnt7a^K190A or Wnt7a^1-278 were transiently expressed in the endothelium of Wnt7aa^−/− embryos under the control of an endothelial-specific kdrl (Vascular endothelial growth factor receptor kdr-like) promoter. The Wnt7 ligands were expressed as a biscistronic construct with BFP (Blue Fluorescent Protein) used as transgenesis marker. In contrast to uninjected embryos, Wnt7, Wnt7a^K190A or Wnt7a^1-278 restore hindbrain CtAs formation in Wnt7aa^−/− mutants as quantified in (B). (C) Anti-GLUT1 staining of the CtAs after transgenic expression of Wnt7, Wnt7a^K190A and Wnt7a^1-278 in 60 hpf Wnt7aa^−/− embryos. Transgenic expression was achieved as in (A).
# Mouse Wnt7, Wnt7a^K190A and Wnt7a^1-278 were transiently expressed in the endothelium of Wnt7aa^−/− embryos under the control of an endothelial-specific kdrl (Vascular endothelial growth factor receptor kdr-like) promoter. The Wnt7 ligands were expressed as a biscistronic construct with BFP (Blue Fluorescent Protein) as transgenesis marker.
molecule,measurement,setting,value
"Wnt7a^1-278: the N-terminal domain of Wnt7a, single domain truncated variant (protein, left off: small tags and cut ends, the N-terminal domain of Wnt7a, single domain truncated variant) LGASIICNKIPGLAPRQRAICQSRPDAIIVIGEGSQMGLDECQFQFRNGRWNCSALGERTVFGKELKVGSREAAFTYAIIAAGVAHAITAACTQGNLSDCGCDKEKQGQYHRDEGWKWGGCSADIRYGIGFAKVFVDAREIKQNARTLMNLHNNEAGRKILEENMKLECKCHGVSGSCTTKTCWTTLPQFRELGYVLKDKYNEAVHVEPVRASRNKRPTFLKIKKPLSYRKPMDTDLVYIEKSPNYC",Reck binding (anti-V5/anti-HA PLA signal),HA-Reck,still binds Reck
same,Reck binding (anti-V5/anti-HA PLA signal),HA-Reck; listed as Wnt7a^NTD,bound to Reck as potently as full-length Wnt7a
same,DRG rescue,wnt7aa morphants,significant DRG rescues
same,blood-brain barrier (GLUT1 expression),[1]; anti-GLUT1 staining of CtAs,restored blood-brain barrier
same,brain angiogenesis / hindbrain CtAs formation,[1]; transient endothelial expression,triggered GPR124/RECK-dependent brain angiogenesis
